The labels stand for the following.
B1: GST-GLFG_(Nup116) (domain or fragment)
chain: YQAGRKFGTSQNGTGTTFNNPQGTTNTGFGIMGNNNSTTSATTGGLFGQKPATGMFGTGTGSGGGFGSGATNSTGLFGSSTNLSGNSAFGANKPATSGGLFGNTTNNPTNGTNNTGLFGQQNSNTNGGLFGQQQNSFGANNVSNGGAFGQVNRGAFPQQQTQQGSGGIFGQSNANANGGAFGQQQGTGALFGAKPASGGLFGQSAGSKAFGMNTNPTGTTGGLFGQTNQQQSGGGLFGQQQNSNAGGLFGQNNQSQNQSGLFGQQNSSNAFGQPQQQGGLFGSKPAGGLFGQQQGASTFASGNAQNNSIFGQNNQQQQSTGGLFGQQNNQSQSQPGGLFGQTNQNNNQPFGQNGLQQPQQNNSLFGAKPTGFGNTSLFSNSTTNQSNGISGNNLQQQSGGLFQNKQQPASGGLFGSKPSNTVGGGLFGNNQVANQNNPASTSGGLFGSKPATGSLFGGTNSTAPNASSGGIFGSNNASNTAATTNSTGLFGNKPVGAGASTSAGGLFGNNNNSSLNNSNGSTGLFGSNNTSQSTNAGGLFQNNTSTNTSGGGLFSQPSQSMAQSQNALQQ
B2: GST-FG_(Nup159) (domain or fragment)
chain: QSQSSSTFGAPSFGSSAFKIDLPSVSSTSTGVASSEQDATDPASAKPVFGKPAFGAIAKEPSTSEYAFGKPSFGAPSFGSGKSSVESPASGSAFGKPSFGTPSFGSGNSSVEPPASGSAFGKPSFGTPSFGSGNSSAEPPASGSAFGKPSFGTSAFGTASSNETNSGSIFGKAAFGSSSFAPANNELFGSNFTISKPTVDSPKEVDSTSPFPSSGDQSEDESKSDVDSSSTPFGTKPNTSTKPKTNAFDFGSSSFGSGFSKALESVGSDTTFKFGTQASPFSSQLGNKSPFSSFTKDDTENGSLSKGSTSEINDDNEEHESNGPNVSGNDLTDSTVEQTSSTRLPETPSDEDGEVVEEEAQKSPIGKLTETIKKSANIDMAGLKNPVFGNHVKAKSESPFSAFATNITKPSSTTPAFSFGNSTMNKSNTSTVSPMEEADTKETS
B3: untagged full-length Mex67p (natural protein)
chain: MSGFHNVGNINMMAQQQMQQNRIKISVRNWQNATMNDLINFISRNARVAVYDAHVEGPLVIGYVNSKAEAESLMKWNGVRFAGSNLKFELLDNNGASAGTSDTISFLRGVLLKRYDPQTKLLNLGALHSDPELIQKGVFSSISTQSKMFPAMMKLASTEKSLIVESVNLADNQLKDISAISTLAQTFPNLKNLCLANNQIFRFRSLEVWKNKFKDLRELLMTNNPITTDKLYRTEMLRLFPKLVVLDNVIVRDEQKLQTVYSLPMKIQQFFFENDALGQSSTDFATNFLNLWDNNREQLLNLYSPQSQFSVSVDSTIPPSTVTDSDQTPAFGYYMSSSRNISKVSSEKSIQQRLSIGQESINSIFKTLPKTKHHLQEQPNEYSMETISYPQINGFVITLHGFFEETGKPELESNKKTGKNNYQKNRRYNHGYNSTSNNKLSKKSFDRTWVIVPMNNSVIIASDLLTVRAYSTGAWKTASIAIAQPPQQQASVLPQVASMNPNITTPPQPQPSVVPGGMSIPGAPQGAMVMAPTLQLPPDVQSRLNPVQLELLNKLHLETKLNAEYTFMLAEQSNWNYEVAIKGFQSSMNGIPREAFVQF
B4: His6-Mtr2p (natural protein)
chain: MNTNSNTMVMNDANQAQITATFTKKILAHLDDPDSNKLAQFVQLFNPNNCRIIFNATPFAQATVFLQMWQNQVVQTQHALTGVDYHAIPGSGTLICNVNCKVRFDESGRDKMGQDATVPIQPNNTGNRNRPNDMNKPRPLWGPYFGISLQLIIDDRIFRNDFNGVISGFNYNMVYKPEDSLLKI

In assay [1] the target is T1, Mex67p/His6-Mtr2p complex (S. cerevisiae | yeast, UniProt Q99257;P34232).
T1 sequence 1: B3 chain
T1 sequence 2: B4 chain
The experiment in a line: pull-down.

Assay [2] concerns the target T2, Mex67pΔC1/His6-Mtr2p complex (S. cerevisiae | yeast, UniProt Q99257;P34232).
T2 sequence 1: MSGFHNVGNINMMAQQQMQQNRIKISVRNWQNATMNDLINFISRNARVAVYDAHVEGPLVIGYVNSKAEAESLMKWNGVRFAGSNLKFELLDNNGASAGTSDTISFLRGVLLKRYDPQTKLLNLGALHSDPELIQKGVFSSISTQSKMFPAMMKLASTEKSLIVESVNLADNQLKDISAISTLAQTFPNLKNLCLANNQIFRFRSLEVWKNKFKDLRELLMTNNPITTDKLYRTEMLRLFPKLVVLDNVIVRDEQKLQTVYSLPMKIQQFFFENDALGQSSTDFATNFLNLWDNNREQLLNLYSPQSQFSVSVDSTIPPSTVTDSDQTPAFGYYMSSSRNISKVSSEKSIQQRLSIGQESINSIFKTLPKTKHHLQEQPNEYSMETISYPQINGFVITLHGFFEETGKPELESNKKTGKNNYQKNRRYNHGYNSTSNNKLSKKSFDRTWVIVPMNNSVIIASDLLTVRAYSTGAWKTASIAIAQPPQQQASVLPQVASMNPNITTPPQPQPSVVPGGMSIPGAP
T2 sequence 2: B4 chain
The experiment in a line: pull-down.

The assay “His6-Mtr2p” addresses B4. In words: AUC.
Assay [3] addresses B3. In words: pull-down.

As for B1, the binding result in assay [1] and in assay [2] was “binds” throughout.

B2: the binding result in assay [1] and in assay [2] was “binds” each time.

As to B3, the “stoichiometry N” value in the assay with His6-Mtr2p was found to be 1.

Turning to B4, the binding result in assay [3] was “binds”.

Source of the values: publication PMC2175290 (The Journal of Cell Biology, 2000).
